# Where a chain is given by its changes, count along the chain named.
# B1: mAb 228 (antibody, V domains shown)
# VH: EVQLLESGGGLVQPGGSLRLSCAASGFTFSNYAMNWVRQAPGKGLEWVSTISGSGGGKYYADSVKGRFTISRDNSKNTLYLHMNSLRAEDTAVYYCAKDPVQDRYYFYYYYMDVWGKGTTVTVSS
# VL: EIVLTQSPDFQSVTPKEKVTITCRASQSIGSSLHWYQQKPDQSPKLLIKYASQSISGVPSRFSGSGSGTDFTLTINSLEAEDAAAYYCHQSSSLPHTFGQGTKLEIK
# notes: VH/VL only
# B2: mAb 248 (antibody, V domains shown)
# VH: QVKLVESGGGVVQPGRSLRLSCVASGFTFSGYGMHWVRQAPGKGLEWVAIIYYDGKNKYYVDSVKGRFTISRDNSKNTLYLQLNSLRAEDTAVYYCVRGPGYNWFDHWGQGTLVTVAS
# VL: B1 VL with I55F, A85T, H96Y
# notes: VH/VL only
# B3: mAb 240 (antibody, V domains shown)
# VH: B2 VH with V2G, G42N, V61A, H107P, A117S
# VL: B1 VL with S28N, Y50H, I55F, A85T, H96Y
# notes: VH/VL only
# B4: mAb 229 (antibody, V domains shown)
# VH: QEQLVESGGGVVQPGRSLRLSCAASGFTFSSYGMHWVRQAPGKGLEWVAIIYYNGKKKDYADSVKGRFTISRDNSKNTLYLQMNSLRAEDTAVYYCARGLGYNWFDPWGQGTLVTVSS
# VL: B1 VL with I55F, A85T, H96Y
# notes: VH/VL only
# B5: mAb 230 (antibody, V domains shown)
# VH: B1 VH with N31S, N35S, T50S, G57S, K58R, H82Q
# VL: B1 VL
# notes: VH/VL only
# B6: mAb 250 (antibody, V domains shown)
# VH: QVQLVESGGGVVQPGRSLRLSCAASGFTFSTYGMHWVRQAPGKGLEWVAVLWSDGRSKYYADSVQGRFTISRDNSKNTLFLQMSSLRAEDTAVYYCAREPYYDFWSGYYTGYMDVWGKGTTVTVSS
# VL: DIQMTQSPSSLSASVGDRVTITCRASQGIRNDLGWYQQKPGKAPKRLIYAASSLQGGVPSRFSGSGSGTEFTLTISSLQPEDFATYYCLQHNSYPRTFGQGTKVEIK
# notes: VH/VL only
# B7: mAb 237 (antibody, V domains shown)
# VH: EVQLLESGGDLVQPGGSLRLTCAASGFTFRSYAMNWVRQAPGKGLEWVSTISSRGDTTNYADSVKGRFTISRDTSKNTLYLQMDNLRADDTAVYYCSKMFSYYYYYMDVWGKGTTVTVSS
# VL: SYELTQPLSVSVALGQTARITCGGNNIGSKDVHWYQQKPGQAPVLVIYRDSNRPSGIPERFSGSNSGNTATLTISRAQAGDEADYYCQVWDSRTAVFGGGTQLTAL
# notes: VH/VL only
# B8: mAb 238 (antibody, V domains shown)
# VH: B7 VH
# VL: B7 VL with R93S
# notes: VH/VL only
# B9: mAb 212 (antibody, V domains shown)
# VH: EVQLLESGGGLVQPGGSLRLSCAASGFTFSNYAMNWVRQAPGKGLEWVSAISGSRSNTYYADSVKGRFTISRDNSKNTLYLQMNSLRAEDTGVYYCAKGAYSKYPYYYYMDVWGKGTTVTVSS
# VL: EIVMTQSPATLSLSPGERATLSCRASQSVSSSYLSWYQQKPGQAPRLLIYGASTRAIGIPARFSGSGSGTDFTLTISSLQAEDFAVYYCQQDDNLPWTFGQGTKVEIK
# notes: VH/VL only
# B10: mAb 214 (antibody, V domains shown)
# VH: B9 VH with G92A
# VL: B9 VL
# notes: VH/VL only
# B11: mAb 194 (antibody, V domains shown)
# VH: QEQLVESGGGVVQPGGSLRLSCAASGFIFSGYGMHWVRQAPGKGLEWVAIIWYNGRKTYYAESVKGRFTISRDNSKNTLSLQMNSLRVEDTAVYYCTAGQGYNWFDPWGQGTLVTVSS
# VL: EIVMTQSPATLSVSPGERATLSCRASQSVSSNLAWYQQKPGQAPRLLIYGASTRATGIPARFSGSGSGTEFTLTISSLQSEDFAVYYCQQFNAWPLTFGGGTKMEIK
# notes: VH/VL only
# B12: mAb 219 (antibody, V domains shown)
# VH: B11 VH with I28M, A61T
# VL: B11 VL
# notes: VH/VL only
# B13: mAb 195 (antibody, V domains shown)
# VH: B4 VH with P14S, A23V, T28K, S31G, N54D, K57N, D59Y, A97T, L100A, P107S
# VL: B11 VL with S30R, S31N, A51V, G57A, I58F, F91Y, A93N, M104V
# notes: VH/VL only
# B14: mAb 220 (antibody, V domains shown)
# VH: B11 VH with A23V, I28T, A98T, Q100K
# VL: B11 VL
# notes: VH/VL only
# B15: mAb 225 (antibody, V domains shown)
# VH: B11 VH with I28K, S85R
# VL: B11 VL
# notes: VH/VL only
# B16: mAb 213 (antibody, V domains shown)
# VH: B11 VH with I28T, A98T, Q100K
# VL: B11 VL
# notes: VH/VL only
# B17: mAb 196 (antibody, V domains shown)
# VH: QEQLVESGGGVVQSGRSLRLSCVASGFKFSGYGMHWVRQAPGKGLEWVAIIYYDGKNKYYADSVKGRFTVSRDNSKNTLYLQMNSLRAEDTAVYYCTRGAGYNWFDSWGQGTLVTVSS
# VL: B11 VL with S30R, S31N, A51V, G57A, I58F, F91Y, A93N, M104V
# notes: VH/VL only
# Target: T1, human CD3 expressed on cells (Jurkat cells; human primary T cells) (human, UniProt P07766 23-207; P04234 22-171; P09693 23-182)
# T1 construct: whole, on cells
# T1 sequence (P07766 23-207, chain 1 of 3): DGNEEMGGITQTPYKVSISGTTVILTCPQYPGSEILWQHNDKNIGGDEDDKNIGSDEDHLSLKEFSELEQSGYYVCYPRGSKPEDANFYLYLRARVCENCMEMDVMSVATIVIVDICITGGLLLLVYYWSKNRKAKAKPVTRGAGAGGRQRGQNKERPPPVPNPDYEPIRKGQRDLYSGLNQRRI
# T1 sequence (P04234 22-171, chain 2 of 3): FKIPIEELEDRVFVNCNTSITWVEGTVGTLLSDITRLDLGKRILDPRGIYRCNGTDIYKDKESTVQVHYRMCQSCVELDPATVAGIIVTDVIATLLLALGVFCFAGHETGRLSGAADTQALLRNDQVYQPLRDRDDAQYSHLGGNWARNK
# T1 sequence (P09693 23-182, chain 3 of 3): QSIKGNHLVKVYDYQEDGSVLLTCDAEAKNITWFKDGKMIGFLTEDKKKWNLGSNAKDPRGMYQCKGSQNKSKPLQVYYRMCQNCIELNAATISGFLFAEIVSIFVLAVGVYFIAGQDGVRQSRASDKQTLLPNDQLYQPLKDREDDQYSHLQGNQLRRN
# Experiment: flow cytometry, 25 nM, human primary T cells
# Procedure: (§1) Purified antibodies were confirmed to bind CD3 expressed on cells using the CytoFLEX S or LX flow cytometers (Beckman Coulter). Antibodies were diluted to 25 nM in FACS buffer (PBS+2% FBS) and were incubated with CD3-expressing cells for 30 minutes at 4° C. […] The median fluorescence intensity of the binding signal for each antibody was normalized to the isotype control to obtain a fold over isotype value. An antibody with a fold over isotype (FOI) of ≥10 was considered to be positive for binding.
row,Binding (FOI),Binder
1,105 FOI,B1
2,203 FOI,B2
3,216 FOI,B3
4,250 FOI,B4
5,55.3 FOI,B5
6,109 FOI,B6
7,293 FOI,B7
8,266 FOI,B8
9,160 FOI,B9
10,162 FOI,B10
11,217 FOI,B11
12,245 FOI,B12
13,226 FOI,B13
14,243 FOI,B14
15,267 FOI,B15
16,248 FOI,B16
17,224 FOI,B17

# Target: T2, cynomolgus monkey CD3 expressed on cyno primary T cells (cynomolgus monkey, UniProt Q95LI5 22-198; Q95LI8 22-171; Q95LI7 23-181)
# T2 construct: whole, on cells; CD3 complex on purified cynomolgus monkey CD3 pan T cells; also called cyno CD3
# T2 sequence (Q95LI5 22-198, chain 1 of 3): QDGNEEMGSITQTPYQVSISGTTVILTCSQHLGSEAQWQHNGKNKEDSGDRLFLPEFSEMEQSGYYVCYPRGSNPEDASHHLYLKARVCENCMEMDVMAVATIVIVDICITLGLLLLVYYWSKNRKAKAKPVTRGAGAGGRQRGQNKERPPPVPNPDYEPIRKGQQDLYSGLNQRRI
# T2 sequence (Q95LI8 22-171, chain 2 of 3): as the sequence (P04234 22-171, chain 2 of 3) above, with I5V, N15K, I20V, S32T, D33N, I34N, T64A, S74N, V83L, H141R counted along it
# T2 sequence (Q95LI7 23-181, chain 3 of 3): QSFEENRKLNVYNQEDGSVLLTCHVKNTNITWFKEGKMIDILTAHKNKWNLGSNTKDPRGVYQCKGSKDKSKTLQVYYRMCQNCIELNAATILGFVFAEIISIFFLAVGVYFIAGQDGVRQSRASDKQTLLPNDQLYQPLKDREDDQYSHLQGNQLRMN
# Experiment: flow cytometry, cyno primary T cells
# Outline: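 Antibodies at 25 nM in PBS + 2% FBS were incubated with CD3-expressing cells for 30 min at 4 °C and read by flow cytometry. Median fluorescence intensity was normalized to isotype control as fold over isotype; ≥10 counted as binding.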
row,Binder,binding result
1,B1,no binding (tested: FOI <10 (FOI >=10 = positive); 25 nM)
2,B2,no binding (tested: FOI <10 (FOI >=10 = positive); 25 nM)
3,B3,no binding (tested: FOI <10 (FOI >=10 = positive); 25 nM)
4,B4,no binding (tested: FOI <10 (FOI >=10 = positive); 25 nM)
5,B5,no binding (tested: FOI <10 (FOI >=10 = positive); 25 nM)
6,B6,no binding (tested: FOI <10 (FOI >=10 = positive); 25 nM)
7,B7,no binding (tested: FOI <10 (FOI >=10 = positive); 25 nM)
8,B8,no binding (tested: FOI <10 (FOI >=10 = positive); 25 nM)
9,B9,no binding (tested: FOI <10 (FOI >=10 = positive); 25 nM)
10,B10,no binding (tested: FOI <10 (FOI >=10 = positive); 25 nM)
11,B11,no binding (tested: FOI <10 (FOI >=10 = positive); 25 nM)
12,B12,no binding (tested: FOI <10 (FOI >=10 = positive); 25 nM)
13,B13,no binding (tested: FOI <10 (FOI >=10 = positive); 25 nM)
14,B14,no binding (tested: FOI <10 (FOI >=10 = positive); 25 nM)
15,B15,no binding (tested: FOI <10 (FOI >=10 = positive); 25 nM)
16,B16,no binding (tested: FOI <10 (FOI >=10 = positive); 25 nM)
17,B17,no binding (tested: FOI <10 (FOI >=10 = positive); 25 nM)

# Target: T1, human CD3 expressed on cells (Jurkat …)
# Experiment: flow cytometry, 25 nM, Jurkat cells
# Procedure: as §1
row,Binding (FOI),Binder
1,159 FOI,B1
2,174 FOI,B2
3,177 FOI,B3
4,180 FOI,B4
5,141 FOI,B5
6,125 FOI,B6
7,217 FOI,B7
8,185 FOI,B8
9,150 FOI,B9
10,150 FOI,B10
11,199 FOI,B11
12,175 FOI,B12
13,170 FOI,B13
14,181 FOI,B14
15,210 FOI,B15
16,192 FOI,B16
17,172 FOI,B17

# From patent US20230295310A1 (ABCELLERA BIOLOGICS, published 2023)
